Data taken from paper PMC3174958.

Target: EPO-hyFc (human)
Experiment: Western blotting; purified EPO-hyFc blotted with anti-EPO and anti-human IgG antibodies; gel conditions not told

stoichiometry N: 2
Substance: EPO-hyFc (Fc fusion)
